Laboratory results as given in US20250320281A1.

Legend:
Assay in all cases: cell-based or functional assay
[1] = target: HIV-1 Env of isolate 93MW959 (subtype C) (HIV-1)
[2] = target: HIV-1 Env of isolate MGRM-AG-005 (subtype AG) (HIV-1)
[3] = target: HIV-1 Env of isolate MGRM-AE-003 (subtype AE) (HIV-1)
[4] = target: HIV-1 Env of isolate CMU02 (clade AE), on pseudovirus (HIV-1)
[5] = target: HIV-1 envelope glycoprotein (Env) of isolate MGRM-C-026 (HIV-1)
[6] = target: HIV-1 MGRM-C-027 Env (pseudovirus, clade C) (HIV-1)
[7] = target: HIV-1 Env of isolate MGRM-A-001 (HIV-1)
[8] = target: HIV-1 APV6 Env (pseudovirus, clade B) (HIV-1)
[9] = target: HIV-1 Env of isolate MG RM-D-002 (HIV-1)
[10] = target: HIV-1 APV13 Env (pseudovirus) (HIV-1)
[11] = target: HIV-1 Env of isolate MGRM-Chronic-B-001 (subtype B) (HIV-1)
[12] = target: HIV-1 Env of pseudovirus isolate MGRM-G-028 (HIV-1)
[13] = target: HIV-1 Env of isolate 92TH021 (pseudovirus) (HIV-1)
[14] = target: HIV-1 Env of isolate 92UG001 (HIV-1)
[15] = target: HIV-1 Env of isolate MGRM-Chronic-B-018 (subtype B) (HIV-1)
[16] = target: HIV-1 envelope glycoprotein (Env) of isolate MGRM-C-023 (HIV-1)
[17] = target: HIV-1 Env of isolate 92UG005 (clade D pseudovirus) (HIV-1)
[18] = target: HIV-1 envelope glycoprotein (Env) of isolate MGRM-A-014, clade A (HIV-1)
[19] = target: HIV-1 Env of isolate 93IN905 (HIV-1)
[20] = target: HIV-1 Env of isolate 98CN006 (CRF08 BC) (HIV-1 isolate 98CN006)
[21] = target: HIV-1 Env of isolate CAAN.A2 (Acute), clade B, on pseudovirus (HIV-1)
[22] = target: HIV-1 Env of pseudovirus MGRM-G-027 (HIV-1, clade G isolate MGRM-G-027)
[23] = target: HIV-1 Env of pseudovirus MGRM-Chronic-B-017 (HIV-1)
[24] = target: HIV-1 Env of pseudovirus MGRM-AE-005 (clade CRF01_AE) (HIV-1)
[25] = target: HIV-1 Env of pseudovirus MGRM-AE-008 (clade CRF01_AE) (HIV-1)
[26] = target: HIV-1 envelope glycoprotein (Env) of isolate MGRM-A-010, clade A (HIV-1)
[27] = target: HIV-1 Env of isolate MGRM-D-024 (clade D pseudovirus) (HIV-1)
[28] = target: HIV-1 Env of pseudovirus MGRM-AG-009 (clade CRF_AG) (HIV-1)
[29] = target: HIV-1 Env of pseudovirus MGRM-AG-006 (clade CRF_AG) (HIV-1)
[30] = target: HIV-1 Env of pseudovirus MGRM-G-017 (HIV-1, clade G isolate MGRM-G-017)
[31] = target: HIV-1 Env of isolate QH0692.42 (Acute), clade B, on pseudovirus (HIV-1)
[32] = target: HIV-1 Env of isolate MGRM-Chronic-B-003, clade B, on pseudovirus (HIV-1)
[33] = target: HIV-1 envelope glycoprotein (Env) of isolate MGRM-A-006, clade A (HIV-1)
[34] = target: HIV-1 envelope glycoprotein (Env) of isolate 92RW026, clade A (HIV-1)
[35] = target: HIV-1 93IN905 envelope glycoprotein (Env) on pseudovirus (HIV-1)

With 5147_N06 (PGT-130) (antibody) the IC50 neutralization [1] was 8.55 µg/mL, the IC50 (µg/mL), pseudovirus neutralization [2] was 0.54 µg/mL and the IC50 (µg/mL), pseudovirus neutralization [3] was 0.337 µg/mL. For the same substance, the IC50, pseudovirus neutralization [4] was > 10 µg/mL, the IC50 (µg/mL), pseudovirus neutralization [5] was 0.036 µg/mL and the IC50 neutralization [6] was 0.0052 µg/mL. For the same substance, the IC50 [7] was > 50 µg/mL, the IC50 neutralization [8] was > 10 µg/mL and the IC50 (µg/mL), pseudovirus neutralization [9] was 0.869 µg/mL. The Neutralization by PGT-130, IC50 [10] was 0.0345 µg/mL, the Neutralization by PGT-130, IC80 [10] was 0.573 µg/mL and the Neutralization by PGT-130, IC90 [10] was 2.88 µg/mL. The Neutralization by PGT-130, IC95 [10] was > 10 µg/mL, the neutralization IC50 (pseudovirus) [10] was 0.0345 µg/mL and the IC50 neutralization [11] was > 50 µg/mL. The IC50 (µg/mL), pseudovirus neutralization [12] was 0.074 µg/mL, the Polyclonal Transfectant Neutralization Index [13] was 4.2 and the Primary Neutralization Index (B cell culture supernatant) [13] was 538. The IC50 (µg/mL), pseudovirus neutralization [14] was > 50 µg/mL, the IC50 neutralization [15] was 31.9 µg/mL and the IC50 (µg/mL), pseudovirus neutralization [16] was 0.151 µg/mL.
1495_C14 (PGC14) (antibody) was tested, and the IC50 (µg/ml), pseudovirus neutralization [17] was > 50 µg/mL, the IC50 (µg/ml), pseudovirus neutralization [18] was > 50 µg/mL and the IC50 [19] was 19 µg/mL. The IC50 (µg/ml), pseudovirus neutralization [20] was > 50 µg/mL, the IC50 (µg/ml), pseudovirus neutralization [21] was > 50 µg/mL and the IC50 (µg/ml), pseudovirus neutralization [22] was > 50 µg/mL. For the same substance, the IC50 (µg/ml), pseudovirus neutralization [23] was > 50 µg/mL, the IC50 [24] was > 50 µg/mL and the IC50 [25] was > 50 µg/mL. For the same substance, the IC50 (µg/ml), pseudovirus neutralization [26] was > 50 µg/mL, the IC50 (µg/ml), pseudovirus neutralization [27] was > 50 µg/mL and the IC50 [28] was > 50 µg/mL. For the same substance, the IC50 [29] was > 50 µg/mL, the IC50 (µg/ml), pseudovirus neutralization [30] was > 50 µg/mL and the IC50 (µg/ml), pseudovirus neutralization [31] was > 50 µg/mL. For the same substance, the IC50 (µg/ml), pseudovirus neutralization [32] was > 50 µg/mL, the IC50 (µg/ml), pseudovirus neutralization [33] was > 50 µg/mL and the IC50 (µg/ml), pseudovirus neutralization [34] was > 50 µg/mL. The IC50, pseudovirus neutralization [35] was > 50 µg/mL.
Substance 4E10 (antibody) has an IC50 (µg/ml), pseudovirus neutralization [17] of 7.46 µg/mL, an IC50 (µg/ml), pseudovirus neutralization [18] of 1.74 µg/mL and an IC50 [19] of 1.26 µg/mL. It also gave an IC50 (µg/ml), pseudovirus neutralization [20] of 1.91 µg/mL, an IC50 (µg/ml), pseudovirus neutralization [21] of 17.9 µg/mL and an IC50 (µg/ml), pseudovirus neutralization [22] of 1.19 µg/mL. It also gave an IC50 (µg/ml), pseudovirus neutralization [23] of 2.77 µg/mL, an IC50 [24] of 0.47 µg/mL and an IC50 [25] of 0.94 µg/mL. For the same substance, the IC50 (µg/ml), pseudovirus neutralization [26] was 14.4 µg/mL, the IC50 (µg/ml), pseudovirus neutralization [27] was 3.6 µg/mL and the IC50 [28] was 31.4 µg/mL. For the same substance, the IC50 [29] was 1.76 µg/mL, the IC50 (µg/ml), pseudovirus neutralization [30] was 1.14 µg/mL and the IC50 (µg/ml), pseudovirus neutralization [31] was 12.7 µg/mL. The IC50 (µg/ml), pseudovirus neutralization [32] was 3.5 µg/mL, the IC50 (µg/ml), pseudovirus neutralization [33] was 9.87 µg/mL and the IC50 (µg/ml), pseudovirus neutralization [34] was 12.9 µg/mL. For the same substance, the IC50, pseudovirus neutralization [35] was 1.55 µg/mL.
For b12 (antibody), the IC50 (µg/ml), pseudovirus neutralization [17] was > 50 µg/mL, the IC50 (µg/ml), pseudovirus neutralization [18] was > 50 µg/mL and the IC50 [19] was 21.4 µg/mL. The IC50 (µg/ml), pseudovirus neutralization [20] was > 50 µg/mL, the IC50 (µg/ml), pseudovirus neutralization [21] was > 50 µg/mL and the IC50 (µg/ml), pseudovirus neutralization [22] was > 50 µg/mL. The IC50 (µg/ml), pseudovirus neutralization [23] was 2.59 µg/mL, the IC50 [24] was 0.63 µg/mL and the IC50 [25] was > 50 µg/mL. The IC50 (µg/ml), pseudovirus neutralization [26] was > 50 µg/mL, the IC50 (µg/ml), pseudovirus neutralization [27] was 5.92 µg/mL and the IC50 [28] was > 50 µg/mL. The IC50 [29] was > 50 µg/mL, the IC50 (µg/ml), pseudovirus neutralization [30] was > 50 µg/mL and the IC50 (µg/ml), pseudovirus neutralization [31] was 0.73 µg/mL. For the same substance, the IC50 (µg/ml), pseudovirus neutralization [32] was > 50 µg/mL, the IC50 (µg/ml), pseudovirus neutralization [33] was 13.6 µg/mL and the IC50 (µg/ml), pseudovirus neutralization [34] was > 50 µg/mL. For the same substance, the IC50, pseudovirus neutralization [35] was 34.1 µg/mL.
